Experiment [1] deals with T1, human FOLR1 recombinant protein (extracellular domain of human folate receptor alpha) (human, UniProt P15328 25-233).
T1 construct: Bought recombinant protein (Sino Biological); also called hFOLR1; FR-alpha
The experiment can be described thus: SPR (Biacore T200), single cycle kinetics, human FOLR1 immobilized on CM5, untagged VHH as analyte, 1:1 fit. The protocol: The antigen-binding kinetic parameters of untagged, purified VHH A1 and A2 variants were determined by surface plasmon resonance on immobilized human FOLR1 recombinant protein with a Biacore T200 instrument (GE Healthcare). The human FOLR1 recombinant protein (Sino Biological) was immobilized in 10 mM sodium acetate, pH 5.5 on a CM5 chip (GE Healthcare) via amine coupling chemistry to 250 RU. VHHs were analyzed using single cycle kinetics with a threefold serial dilution in HBS (5 nM-0.062 nM) and an analyte flow rate of 40 µl/min. The association phase took 5× 450 s and the dissociation phase 900 s. Regeneration was done by a single injection of 50 mM glycine-HCl, pH 2.5, 2 M MgCl₂ for 30 s at 30 µl/min, followed by 120 s stabilization. Binding curves were fitted using a ‘1:1 (antigen:analyte)’ binding model in Biacore T200 evaluation software.
In general terms: SPR reads the build-up and loss of mass on a sensor chip optically.

The target of experiment [2] is T2, human FOLR1 expressed on SKOV-3 ovarian carcinoma cells (human, UniProt P15328 25-234).
T2 construct: Naturally expressed receptor on SKOV-3 cells; also called human FOLR1pos SKOV-3 cancer cells; human FOLR1-expressing cell line SKOV-3
T2 sequence (P15328 25-234 limits assumed): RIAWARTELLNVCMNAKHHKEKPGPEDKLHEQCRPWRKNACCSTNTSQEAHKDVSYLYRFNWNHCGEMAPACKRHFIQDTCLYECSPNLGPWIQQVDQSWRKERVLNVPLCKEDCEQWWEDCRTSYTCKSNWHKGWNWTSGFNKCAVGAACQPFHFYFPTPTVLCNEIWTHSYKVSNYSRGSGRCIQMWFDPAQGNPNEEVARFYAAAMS
Put plainly: saturation binding of 99mTc-labelled His6-tagged VHH on SKOV-3 cells (0-300 nM); non-specific binding by 100-fold unlabelled VHH. Here is the method: After quality control (> 95%), human FOLR1^pos SKOV-3 cancer cells were incubated with serial dilutions with concentrations ranging from 0 to 300 nM of the different ^99mTc-labelled VHHs. A 100-fold excess of the corresponding unlabeled VHH was added in parallel to saturate the human FOLR1 receptors expressed on cancer cells, to assess non-specific binding.

For experiment [3], the target named is T2, human FOLR1 expressed on SKOV-3 ovarian …. The experiment can be described thus: saturation binding of 131I-labelled untagged VHH on SKOV-3 cells. Here is the method:
In a first part, their in vitro behaviour was assessed by means of investigating their cellular binding and retention over time. The binding potential of the resulting radioconjugates was assessed to confirm that this was not affected by the introduction of ¹³¹I-SGMIB into the amino acid sequence of the different VHHs. To this, human FOLR1^pos SKOV-3 cancer cells were incubated with serial dilutions with concentrations ranging from 0 to 300 nM of the different ¹³¹I-labelled, His₆ tagged VHHs. A 100-fold excess of the corresponding unlabeled VHH was added in parallel to saturate the human FOLR1 receptors expressed on cancer cells, to assess non-specific binding.
A1 and A2 parental untagged VHH’s and derivatives were radiolabeled with theranostic isotope ¹³¹I, as described in example 3, and subjected to saturation binding studies as described in example 6.

Experiment [4] has the same target. The experiment can be described thus: cellular retention on SKOV-3 cells: 10 nM 131I-VHH 1 h at 4 C, then up to 24 h at 37 C; membrane-bound plus internalized fraction. Here is the method: The in vitro cellular retention of the different His₆- and untagged ¹³¹I-labeled VHHs was assessed on the same cancer cells. In this particular case, human FOLR1^pos SKOV-3 cancer cells were incubated with 10 nM ¹³¹I-labelled VHHs for 1h at 4° C., after which the unbound fraction was collected. A 100-fold excess of the corresponding unlabeled VHH to assess non-specific binding. Next, the cells were incubated with fresh medium up to 24 h at 37° C., after which the dissociated fraction was collected. Afterwards, the cells were washed with 0.05 M glycine pH 2.8 to collect the membrane-bound fraction. Finally, cells were solubilized with 1 M NaOH at room temperature to collect the internalized fraction. The sum of the membrane-bound and internalized fractions corresponds to the total cell-associated fraction.

For orientation: Kd means the equilibrium constant for the complex coming apart. One may read the koff as the rate constant with which the complex falls apart. A word on the kon: it is a measure of how fast the partners come together. The EC50 is the midpoint of the concentration-response curve.

Numbering of substitutions follows the chain as printed. Names may count otherwise.

T1 sequence (P15328 25-233): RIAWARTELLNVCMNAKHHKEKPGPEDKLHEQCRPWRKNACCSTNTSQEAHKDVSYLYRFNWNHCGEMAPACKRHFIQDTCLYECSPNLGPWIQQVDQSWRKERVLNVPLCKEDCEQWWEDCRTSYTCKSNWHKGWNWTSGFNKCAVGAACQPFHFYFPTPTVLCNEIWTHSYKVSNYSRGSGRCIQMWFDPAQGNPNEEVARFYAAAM

B1: untagged N64E variant of VHH A1 (VHH)
VHH: DVQLVESGGGLVQPGGSLRLSCAASESIFSRNHMSWYRQAPGKQRELAAIITSDGETNYPDSVKGRFTISRDNAKNTVYLQMNSLKPEDTAVYYCNTFGRSVAGFYDYWGQGTQVTVSS
notes: also called A1-N64E
With B1, in experiment [1], the Kd came to 0.092 nM, the koff amounted to 0.00017 s⁻¹ and the kon is 1.8e+06 M⁻¹ s⁻¹.

B2: 99mTc-labeled His6-tagged VHH A1 (VHH)
VHH: B1 VHH with E56N
modifications: [99mTc(H2O)3(CO)3] at the His6-tail
notes: also called 99mTc-A1; 99mTc-VHH A1
As for B2, in experiment [2], the EC50 amounted to 1 nM. In other words, the single-digit nanomolar range.

B3: 131I-labeled untagged A1-N64E (VHH)
VHH: B1 VHH
modifications: [131I]SGMIB conjugated to lysine side-chain amine groups
As to B3, the EC50 in experiment [3] came to 2.5 nM. In other words, the single-digit nanomolar range.

B4: 131I-labeled untagged A1-D59E (VHH)
VHH: B1 VHH with D54E, E56N
modifications: [131I]SGMIB conjugated to lysine side-chain amine groups
Turning to B4, the response in experiment [3] was half-maximal at 2.1 nM (EC50).

B5: 131I-labeled untagged A1-N64Q (VHH)
VHH: B1 VHH with E56Q
modifications: [131I]SGMIB conjugated to lysine side-chain amine groups
As for B5, the EC50 in experiment [3] worked out at 2.3 nM.

B6: untagged N64S variant of VHH A1 (VHH)
VHH: B1 VHH with E56S
notes: also called A1-N64S
For B6, in experiment [1], the Kd was 0.057 nM, the koff came out at 0.00014 s⁻¹ and the kon came out at 2.5e+06 M⁻¹ s⁻¹.

B7: untagged D59E variant of VHH A1 (VHH)
VHH: B1 VHH with D54E, E56N
notes: also called A1-D59E
Regarding B7, in experiment [1], the Kd was 0.083 nM, the koff worked out at 0.00019 s⁻¹ and the kon amounted to 2.3e+06 M⁻¹ s⁻¹.

B8: untagged N64Q variant of VHH A1 (VHH)
VHH: B1 VHH with E56Q
notes: also called A1-N64Q
Regarding B8, in experiment [1], the Kd amounted to 0.036 nM, the koff was 8.2e-05 s⁻¹ and the kon is 2.3e+06 M⁻¹ s⁻¹.

B9: 131I-labeled untagged A1-N64S (VHH)
VHH: B1 VHH with E56S
modifications: [131I]SGMIB conjugated to lysine side-chain amine groups
The molecule B9 displayed an EC50 in experiment [3] of 0.9 nM.

B10: 99mTc-labeled His6-tagged VHH A5 (VHH)
VHH: DVQLVESGGGLVQAGGSLRLSCGVSGNIFSMNLMGWYRQPPGKEREWVALITKDGSTNYEDSVKGRFTISRDNAKNTVSLQMNSLKPEDTAVYYCNAQDGSGWIRAWGWDWGQGTQVTVSS
modifications: [99mTc(H2O)3(CO)3] at the His6-tail
notes: also called 99mTc-A5
For B10, the EC50 in experiment [2] came to 28.6 nM.

B11: 99mTc-labeled His6-tagged VHH A3 (VHH)
VHH: B10 VHH with I28M, E46D, L50V, E60A, A97V
modifications: [99mTc(H2O)3(CO)3] at the His6-tail
notes: also called 99mTc-A3
In turn, B11 had an EC50 in experiment [2] of 3.3 nM.

B12: 99mTc-labeled His6-tagged VHH A4 (VHH)
VHH: DVQLVESGGGLARAGGSLRLSCAASGRAFSSTYAMGWFRQAPGKEREFVADINWSEGSPMYIDSVKDRFTISRDNARNSLYLQMNSLKSEDTAVYYCAARRFGQGYEYWGQGTQVTVSS
modifications: [99mTc(H2O)3(CO)3] at the His6-tail
notes: also called 99mTc-A4
In experiment [2], B12 registered an EC50 of 3.8 nM.

B13: untagged E90Q variant of VHH A2 (VHH)
VHH: DVQLVESGGGLVQAGGSLRLSCAADEMKFSNYDLAWYRRAPGKQRELAAIITSGGSTNYPDSVKGRFTISRDNAKNTVYLQMNSLKPEDTAVYYCNALRPWPQFSDYWGQGTQVTVSS
notes: also called A2-E90Q
Consider B13, for which, in experiment [1], the Kd was determined as 0.25 nM, the koff was 0.0006 s⁻¹ and the kon is 2.3e+06 M⁻¹ s⁻¹.

B14: 131I-labeled untagged A2-E90Q (VHH)
VHH: B13 VHH
modifications: [131I]SGMIB conjugated to lysine side-chain amine groups
As to B14, the EC50 in experiment [3] was 2.9 nM.

B15: 99mTc-labeled His6-tagged VHH A2 (VHH)
VHH: B13 VHH with Q81E
modifications: [99mTc(H2O)3(CO)3] at the His6-tail
notes: also called 99mTc-A2; 99mTc-VHH A2
Take B15: in experiment [2], the EC50 turned out to be 1.1 nM.

B16: untagged M28A-E90Q variant of VHH A2 (VHH)
VHH: B13 VHH with M27A
notes: also called A2-M28A-E90Q
Turning to B16, in experiment [1], the Kd came out at 0.81 nM, the koff came to 0.0016 s⁻¹ and the kon came out at 2e+06 M⁻¹ s⁻¹.

B17: untagged K29R-E90Q variant of VHH A2 (VHH)
VHH: B13 VHH with K28R
notes: also called A2-K29R-E90Q
On to B17, for which, in experiment [1], the Kd stood at 0.29 nM, the koff came to 0.00053 s⁻¹ and the kon is 1.9e+06 M⁻¹ s⁻¹.

B18: 131I-labeled untagged A2-M28A-E90Q (VHH)
VHH: B13 VHH with M27A
modifications: [131I]SGMIB conjugated to lysine side-chain amine groups
In experiment [3], B18 had an EC50 of 4.1 nM.

B19: 131I-labeled untagged A2-K29R-E90Q (VHH)
VHH: B13 VHH with K28R
modifications: [131I]SGMIB conjugated to lysine side-chain amine groups
B19: the EC50 in experiment [3] amounted to 3.6 nM.

B20: untagged K29Q-E90Q variant of VHH A2 (VHH)
VHH: B13 VHH with K28Q
notes: also called A2-K29Q-E90Q
Consider B20, for which, in experiment [1], the Kd was 0.27 nM, the koff came out at 0.00048 s⁻¹ and the kon was found to be 1.8e+06 M⁻¹ s⁻¹.

B21: 131I-labeled untagged A2-M28T-E90Q (VHH)
VHH: B13 VHH with M27T
modifications: [131I]SGMIB conjugated to lysine side-chain amine groups
Turning to B21, the response in experiment [3] was half-maximal at 4.8 nM (EC50). This lies in the single-digit nanomolar range.

B22: 131I-labeled untagged VHH A2 (VHH)
VHH: B13 VHH with Q81E
modifications: [131I]SGMIB conjugated to lysine side-chain amine groups
Consider B22, for which the “cell-associated fraction of initial bound activity after 24 h” value in experiment [4] is roughly 60%. For the same molecule, the EC50 in experiment [3] was determined as 2.4 nM.

B23: untagged M28T-E90Q variant of VHH A2 (VHH)
VHH: B13 VHH with M27T
notes: also called A2-M28T-E90Q; A2-M28TE90Q
With B23, in experiment [1], the Kd was 0.56 nM, the koff was 0.0013 s⁻¹ and the kon came to 2.3e+06 M⁻¹ s⁻¹.

B24: 131I-labeled untagged A2-K29Q-E90Q (VHH)
VHH: B13 VHH with K28Q
modifications: [131I]SGMIB conjugated to lysine side-chain amine groups
The molecule B24 returned an EC50 in experiment [3] of 5.1 nM.
